B1: Tyrosine-protein phosphatase non-receptor type 1 (Homo sapiens), P18031 (parent)
chain: MEMEKEFEQIDKSGSWAAIYQDIRHEASDFPCRVAKLPKNKNRNRYRDVSPFDHSRIKLHQEDNDYINASLIKMEEAQRSYILTQGPLPNTCGHFWEMVWEQKSRGVVMLNRVMEKGSLKCAQYWPQKEEKEMIFEDTNLKLTLISEDIKSYYTVRQLELENLTTQETREILHFHYTTWPDFGVPESPASFLNFLFKVRESGSLSPEHGPVVVHCSAGIGRSGTFCLADTCLLLMDKRKDPSSVDIKKVLLEMRKFRMGLIQTADQLRFSYLAVIEGAKFIMGDSSVQDQWKELSHEDLEPPPEHIPPPPRPPKRILEPHNGKCREFFPNHQWVKEETQEDKDCPIKEEKGSPLNAAPYGIESMSQDTEVRSRVVGGSLRGAQAASPAKGEPSLPEKDEDHALSYWKPFLVNMCVATVLTAGAYLCYRFLFNSNT

Variants of: B1
Settings: with cadh2_chick CDH2, P10288
Sequence of cadh2_chick CDH2, P10288 (P10288 whole entry): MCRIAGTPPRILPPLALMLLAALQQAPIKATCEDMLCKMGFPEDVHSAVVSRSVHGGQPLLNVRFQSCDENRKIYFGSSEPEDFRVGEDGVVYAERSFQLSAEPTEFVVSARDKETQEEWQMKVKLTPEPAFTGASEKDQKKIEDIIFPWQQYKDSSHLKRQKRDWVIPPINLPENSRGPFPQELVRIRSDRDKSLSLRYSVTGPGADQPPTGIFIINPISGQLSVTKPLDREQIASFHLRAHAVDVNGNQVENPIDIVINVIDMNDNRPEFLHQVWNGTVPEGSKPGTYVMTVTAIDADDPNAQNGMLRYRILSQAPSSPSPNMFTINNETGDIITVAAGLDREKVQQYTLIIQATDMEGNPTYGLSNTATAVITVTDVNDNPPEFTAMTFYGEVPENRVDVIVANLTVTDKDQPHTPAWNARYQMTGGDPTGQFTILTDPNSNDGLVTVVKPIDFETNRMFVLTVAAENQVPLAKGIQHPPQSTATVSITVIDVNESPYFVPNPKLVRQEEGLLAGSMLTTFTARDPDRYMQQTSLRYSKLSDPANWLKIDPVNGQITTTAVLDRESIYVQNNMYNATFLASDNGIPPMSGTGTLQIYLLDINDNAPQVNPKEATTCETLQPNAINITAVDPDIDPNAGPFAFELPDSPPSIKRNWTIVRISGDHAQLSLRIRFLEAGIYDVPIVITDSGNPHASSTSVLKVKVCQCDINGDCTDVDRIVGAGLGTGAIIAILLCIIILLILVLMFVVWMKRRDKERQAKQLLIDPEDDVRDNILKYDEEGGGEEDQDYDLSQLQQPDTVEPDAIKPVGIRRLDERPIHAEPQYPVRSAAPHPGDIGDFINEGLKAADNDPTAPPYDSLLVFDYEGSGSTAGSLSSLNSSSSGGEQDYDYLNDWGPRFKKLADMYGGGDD

Variant | effect of a mutation on the interaction
Y66F;Y153F | increasing interaction
Y66F | increasing interaction
Y66F;Y152F | decreasing interaction
Y66F;Y152F;Y153F | decreasing interaction

Next, values leading:

effect of a mutation on the interaction | Variant
increasing interaction | Y153F
increasing interaction | C215S
decreasing interaction | Y152F

Variants of: B1
Settings: with cadh2_mouse Cdh2, P15116
Sequence of cadh2_mouse Cdh2, P15116 (P15116 whole entry): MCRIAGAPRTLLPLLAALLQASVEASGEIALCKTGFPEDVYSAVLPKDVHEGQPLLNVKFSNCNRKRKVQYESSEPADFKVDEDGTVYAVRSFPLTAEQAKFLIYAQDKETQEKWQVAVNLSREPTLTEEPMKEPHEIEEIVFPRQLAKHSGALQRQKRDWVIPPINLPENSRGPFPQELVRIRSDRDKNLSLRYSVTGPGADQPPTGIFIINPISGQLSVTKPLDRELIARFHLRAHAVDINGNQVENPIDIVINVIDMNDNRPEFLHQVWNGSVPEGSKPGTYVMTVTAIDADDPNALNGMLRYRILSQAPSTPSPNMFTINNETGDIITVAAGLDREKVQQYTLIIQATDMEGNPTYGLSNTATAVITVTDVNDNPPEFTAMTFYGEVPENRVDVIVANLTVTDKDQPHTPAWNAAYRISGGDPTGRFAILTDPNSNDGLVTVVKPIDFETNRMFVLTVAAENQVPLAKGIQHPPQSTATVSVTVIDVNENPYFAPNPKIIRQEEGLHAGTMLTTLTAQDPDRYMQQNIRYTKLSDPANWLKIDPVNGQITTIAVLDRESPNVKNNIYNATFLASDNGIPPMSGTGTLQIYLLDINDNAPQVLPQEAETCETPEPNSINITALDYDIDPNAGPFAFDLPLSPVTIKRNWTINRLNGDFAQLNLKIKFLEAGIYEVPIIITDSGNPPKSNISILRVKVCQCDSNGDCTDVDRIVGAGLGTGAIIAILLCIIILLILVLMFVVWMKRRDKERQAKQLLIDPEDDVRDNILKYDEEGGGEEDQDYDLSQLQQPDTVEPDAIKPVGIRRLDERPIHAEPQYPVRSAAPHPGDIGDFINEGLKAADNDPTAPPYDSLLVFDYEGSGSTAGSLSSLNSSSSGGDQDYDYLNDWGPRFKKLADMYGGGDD

effect of a mutation on the interaction | Variant
disrupting interaction strength | C215S

Variants of: B1
Settings: with cadh2_mouse Cdh2, P15116
Remark: another data set of the same source

effect of a mutation on the interaction | Variant
disrupting interaction | Y152F

Source: IntAct's records for PubMed 11106648
